The values below come from the supplement of paper PMC5998384.

Data set [1] has as its system HeLa Kyoto. Nature of the data set: thermal stability score vs G1/S (z-score of summed log2 fold changes over temperatures); higher = more thermally stable than in G1/S.
Data set [2] has as its system HeLa Kyoto. In words: solubility in G1/S (NP-40 vs SDS abundance) (log2 ratio); higher = more soluble. The settings on record: cell cycle stage: G1/S.
Data set [3] has as its system HeLa Kyoto. Nature of the data set: solubility change mitosis vs G1/S (difference of NP-40 vs SDS log2 ratios) (log2 ratio difference); higher = more soluble in mitosis.
For data set [4], the system named is HeLa Kyoto. Nature of the data set: melting temperature (median over replicates), in situ; higher = more thermally stable.
[5] abbreviates: cell cycle stage: early G1 (4.5 h after nocodazole release).
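Throughout, for melting temperature (median over replicates), in situ: HeLa Kyoto cells synchronized by double thymidine or nocodazole block, proteins quantified by TMT10plex mass spectrometry, three independent biological replicates.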
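Throughout, for solubility change mitosis vs G1/S (difference of NP-40 vs SDS log2 ratios): synchronized HeLa Kyoto cells (double thymidine block for G1/S, nocodazole release for mitosis), protein amounts in NP-40 versus SDS lysates quantified by mass spectrometry, three biological replicates.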
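Throughout, for solubility in G1/S (NP-40 vs SDS abundance): HeLa Kyoto cells arrested at G1/S by double thymidine block, proteins quantified by TMT10plex mass spectrometry in mild NP-40 versus SDS extracts, three biological replicates.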
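Throughout, for thermal stability score vs G1/S (z-score of summed log2 fold changes over temperatures): synchronized HeLa Kyoto cells, proteins quantified by TMT10plex mass spectrometry, three biological replicates, mitosis taken 0.5 h after nocodazole release, G1/S directly after double thymidine block.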

As for “MADIDNKEQSELDQDLDDVEEVEEEETGEETKLKARQLTVQMMQNPQILAALQERLDGLVETPTGYIESLPRVVKRRVNALKNLQVKCAQIEAKFYEEVHDLERKYAVLYQPLFDKRFEIINAIYEPTEEECEWKPDEEDEISEELKEKAKIEDEKKDEEKEDPKGIPEFWLTVFKNVDLLSDMVQEHDEPILKHLKDIKVKFSDAGQPMSFVLEFHFEPNEYFTNEVLTKTYRMRSEPDDSDPFSFDGPEIMGCTGCQIDWKKGKNVTLKTIKKKQKHKGRGTVRTVTKTVSNDSFFNFFAPPEVPESGDLDDDAEAILAADFEIGHFLRERIIPRSVLYFTGEAIEDDDDDYDEEGEEADEEGEEEGDEENDPDYDPKKDQNPAECKQQ [NAP1L1]”, the thermal stability score stood at 2.07 in the data set with HeLa Kyoto [1] (setting [5]) and 2.03 with HeLa Kyoto [1] (cell cycle stage: mitosis). In addition, in the data set on HeLa Kyoto [2], the “solubility in G1/S (log2)” value came out at 0.329. In the data set with HeLa Kyoto [3], the “solubility change mitosis (log2)” value was -0.0741. Further, the melting temperature in the data set with HeLa Kyoto [4] (cell cycle stage: G1/S) was 49.7 °C; with HeLa Kyoto [4] (cell cycle stage: mitosis) it was 50.9 °C.

For the sequence “MADKEAGGSDGPRETAPTSAYSSPARSLGDTGITPLSPSHIVNDTDSNVSEQQSFLVVVAVDFGTTSSGYAYSFTKEPECIHVMRRWEGGDPGVSNQKTPTTILLTPERKFHSFGYAARDFYHDLDPNEAKQWLYLEKFKMKLHTTGDLTMDTDLTAANGKKVKALEIFAYALQYFKEQALKELSDQAGSEFENSDVRWVITVPAIWKQPAKQFMRQAAYQAGLASPENSEQLIIALEPEAASIYCRKLRLHQMIELSSKAAVNGYSGSDTVGAGFTQAKEHIRRNRQSRTFLVENVIGEIWSELEEGDKYVVVDSGGGTVDLTVHQIRLPEGHLKELYKATGGPYGSLGVDYEFEKLLYKIFGEDFIEQFKIKRPAAWVDLMIAFESRKRAAAPDRTNPLNITLPFSFIDYYKKFRGHSVEHALRKSNVDFVKWSSQGMLRMSPDAMNALFKPTIDSIIEHLRDLFQKPEVSTVKFLFLVGGFAEAPLLQQAVQAAFGDQCRIIIPQDVGLTILKGAVLFGLDPAVIKVRRSPLTYGVGVLNRYVEGKHPPEKLLVKDGTRWCTDVFDKFISADQSVALGELVKRSYTPAKPSQLVIVINIYSSEHDNVSFITDPGVKKCGTLRLDLTGTSGTAVPARREIQTLMQFGDTEIKATAIDIATSKSVKVGIDFLNY [HSPA12A]”, the results for the thermal stability score with HeLa Kyoto [1] (setting [5]) and in the data set on HeLa Kyoto [1] (cell cycle stage: mitosis) were 0.628 and 1, respectively. The “solubility in G1/S (log2)” value in the data set with HeLa Kyoto [2] was -0.123. Besides, in the data set on HeLa Kyoto [3], the “solubility change mitosis (log2)” value was -0.113. The melting temperature in the data set on HeLa Kyoto [4] (cell cycle stage: G1/S) amounted to 52.1 °C; in the data set with HeLa Kyoto [4] (cell cycle stage: mitosis) it was 52.7 °C.

Take “MADKVRRQRPRRRVCWALVAVLLADLLALSDTLAVMSVDLGSESMKVAIVKPGVPMEIVLNKESRRKTPVIVTLKENERFFGDSAASMAIKNPKATLRYFQHLLGKQADNPHVALYQARFPEHELTFDPQRQTVHFQISSQLQFSPEEVLGMVLNYSRSLAEDFAEQPIKDAVITVPVFFNQAERRAVLQAARMAGLKVLQLINDNTATALSYGVFRRKDINTTAQNIMFYDMGSGSTVCTIVTYQMVKTKEAGMQPQLQIRGVGFDRTLGGLEMELRLRERLAGLFNEQRKGQRAKDVRENPRAMAKLLREANRLKTVLSANADHMAQIEGLMDDVDFKAKVTRVEFEELCADLFERVPGPVQQALQSAEMSLDEIEQVILVGGATRVPRVQEVLLKAVGKEELGKNINADEAAAMGAVYQAAALSKAFKVKPFVVRDAVVYPILVEFTREVEEEPGIHSLKHNKRVLFSRMGPYPQRKVITFNRYSHDFNFHINYGDLGFLGPEDLRVFGSQNLTTVKLKGVGDSFKKYPDYESKGIKAHFNLDESGVLSLDRVESVFETLVEDSAEEESTLTKLGNTISSLFGGGTTPDAKENGTDTVQEEEESPAEGSKDEPGEQVELKEEAEAPVEDGSQPPPPEPKGDATPEGEKATEKENGDKSEAQKPSEKAEAGPEGVAPAPEGEKKQKPARKRRMVEEIGVELVVLDLPDLPEDKLAQSVQKLQDLTLRDLEKQEREKAANSLEAFIFETQDKLYQPEYQEVSTEEQREEISGKLSAASTWLEDEGVGATTVMLKEKLAELRKLCQGLFFRVEERKKWPERLSALDNLLNHSSMFLKGARLIPEMDQIFTEVEMTTLEKVINETWAWKNATLAEQAKLPATEKPVLLSKDIEAKMMALDREVQYLLNKAKFTKPRPRPKDKNGTRAEPPLNASASDQGEKVIPPAGQTEDAEPISEPEKVETGSEPGDTEPLELGGPGAEPEQKEQSTGQKRPLKNDEL [HYOU1]”: the thermal stability score with HeLa Kyoto [1] (setting [5]) was found to be 3.86; with HeLa Kyoto [1] (cell cycle stage: mitosis) it was 5.24. In addition, in the data set with HeLa Kyoto [2], the “solubility in G1/S (log2)” value worked out at 0.402. Further, in the data set with HeLa Kyoto [3], the “solubility change mitosis (log2)” value was -0.0667. Moreover, the figures for the melting temperature with HeLa Kyoto [4] (cell cycle stage: G1/S) and in the data set on HeLa Kyoto [4] (cell cycle stage: mitosis) were 54.1 °C and 54.4 °C, respectively.

Turning to “MADLSLADALTEPSPDIEGEIKRDFIATLEAEAFDDVVGETVGKTDYIPLLDVDEKTGNSESKKKPCSETSQIEDTPSSKPTLLANGGHGVEGSDTTGSPTEFLEEKMAYQEYPNSQNWPEDTNFCFQPEQVVDPIQTDPFKMYHDDDLADLVFPSSATADTSIFAGQNDPLKDSYGMSPCNTAVVPQGWSVEALNSPHSESFVSPEAVAEPPQPTAVPLELAKEIEMASEERPPAQALEIMMGLKTTDMAPSKETEMALAKDMALATKTEVALAKDMESPTKLDVTLAKDMQPSMESDMALVKDMELPTEKEVALVKDVRWPTETDVSSAKNVVLPTETEVAPAKDVTLLKETERASPIKMDLAPSKDMGPPKENKKETERASPIKMDLAPSKDMGPPKENKIVPAKDLVLLSEIEVAQANDIISSTEISSAEKVALSSETEVALARDMTLPPETNVILTKDKALPLEAEVAPVKDMAQLPETEIAPAKDVAPSTVKEVGLLKDMSPLSETEMALGKDVTPPPETEVVLIKNVCLPPEMEVALTEDQVPALKTEAPLAKDGVLTLANNVTPAKDVPPLSETEATPVPIKDMEIAQTQKGISEDSHLESLQDVGQSAAPTFMISPETVTGTGKKCSLPAEEDSVLEKLGERKPCNSQPSELSSETSGIARPEEGRPVVSGTGNDITTPPNKELPPSPEKKTKPLATTQPAKTSTSKAKTQPTSLPKQPAPTTIGGLNKKPMSLASGLVPAAPPKRPAVASARPSILPSKDVKPKPIADAKAPEKRASPSKPASAPASRSGSKSTQTVAKTTTAAAVASTGPSSRSPSTLLPKKPTAIKTEGKPAEVKKMTAKSVPADLSRPKSTSTSSMKKTTTLSGTAPAAGVVPSRVKATPMPSRPSTTPFIDKKPTSAKPSSTTPRLSRLATNTSAPDLKNVRSKVGSTENIKHQPGGGRAKVEKKTEAAATTRKPESNAVTKTAGPIASAQKQPAGKVQIVSKKVSYSHIQSKCGSKDNIKHVPGGGNVQIQNKKVDISKVSSKCGSKANIKHKPGGGDVKIESQKLNFKEKAQAKVGSLDNVGHLPAGGAVKTEGGGSEAPLCPGPPAGEEPAISEAAPEAGAPTSASGLNGHPTLSGGGDQREAQTLDSQIQETSI [MAP4]”, the thermal stability score with HeLa Kyoto [1] (setting [5]) is -3.19; with HeLa Kyoto [1] (cell cycle stage: mitosis), -3.41. In addition, the “solubility in G1/S (log2)” value in the data set with HeLa Kyoto [2] is 0.265. Moreover, the “solubility change mitosis (log2)” value in the data set on HeLa Kyoto [3] is -0.0455. The melting temperature with HeLa Kyoto [4] (cell cycle stage: G1/S) is 59 °C.
